# Measured values as given in US9745384B2, “Peptides useful for modulating histone demethylase function” (The Brigham and Women's Hospital, Inc., priority 2012, dated 2017).
# T1: LSD2 (Homo sapiens, UniProt Q8NB78)
# T1 construct: 0.15 μM or 1.2 μM purified LSD2 (residues 51-822); His6 (cleaved yes); made in house; host or cells: Sf9 insect cells (baculovirus)
# T1 sequence (Q8NB78 51-822): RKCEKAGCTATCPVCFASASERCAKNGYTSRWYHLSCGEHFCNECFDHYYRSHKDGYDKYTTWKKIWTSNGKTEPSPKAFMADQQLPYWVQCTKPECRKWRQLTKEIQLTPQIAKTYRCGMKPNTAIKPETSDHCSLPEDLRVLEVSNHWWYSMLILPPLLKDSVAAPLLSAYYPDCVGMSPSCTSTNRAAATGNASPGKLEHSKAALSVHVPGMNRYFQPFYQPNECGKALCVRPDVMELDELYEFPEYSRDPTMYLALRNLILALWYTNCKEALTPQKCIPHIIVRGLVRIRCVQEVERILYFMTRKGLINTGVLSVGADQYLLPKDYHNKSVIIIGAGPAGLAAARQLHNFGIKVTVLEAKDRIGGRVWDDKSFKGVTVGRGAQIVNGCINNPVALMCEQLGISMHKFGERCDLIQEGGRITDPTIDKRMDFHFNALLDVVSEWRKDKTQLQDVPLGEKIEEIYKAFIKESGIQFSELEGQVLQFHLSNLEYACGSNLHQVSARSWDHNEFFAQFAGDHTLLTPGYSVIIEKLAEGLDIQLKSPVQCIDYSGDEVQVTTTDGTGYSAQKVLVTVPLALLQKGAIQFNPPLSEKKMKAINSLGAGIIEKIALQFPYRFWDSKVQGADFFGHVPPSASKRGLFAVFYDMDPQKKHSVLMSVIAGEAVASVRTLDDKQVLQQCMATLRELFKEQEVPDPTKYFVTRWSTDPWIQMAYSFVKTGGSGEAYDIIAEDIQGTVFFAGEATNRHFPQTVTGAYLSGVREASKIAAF
# B1: NPAC: full-length human NPAC/GLYR1 (protein ID: Q49A26), recombinant, LSD2 cofactor (protein)
# chain: MAAVSLRLGDLVWGKLGRYPPWPGKIVNPPKDLKKPRGKKCFFVKFFGTEDHAWIKVEQLKPYHAHKEEMIKINKGKRFQQAVDAVEEFLRRAKGKDQTSSHNSSDDKNRRNSSEERSRPNSGDEKRKLSLSEGKVKKNMGEGKKRVSSGSSERGSKSPLKRAQEQSPRKRGRPPKDEKDLTIPESSTVKGMMAGPMAAFKWQPTASEPVKDADPHFHHFLLSQTEKPAVCYQAITKKLKICEEETGSTSIQAADSTAVNGSITPTDKKIGFLGLGLMGSGIVSNLLKMGHTVTVWNRTAEKCDLFIQEGARLGRTPAEVVSTCDITFACVSDPKAAKDLVLGPSGVLQGIRPGKCYVDMSTVDADTVTELAQVIVSRGGRFLEAPVSGNQQLSNDGMLVILAAGDRGLYEDCSSCFQAMGKTSFFLGEVGNAAKMMLIVNMVQGSFMATIAEGLTLAHVTGQSQQTLLDILNQGQLASIFLDQKCQNILQGNFKPDFYLKYIQKDLRLAIALGDAVNHPTPMAAAANEVYKRAKALDQSDNDMSAVYRAYIH
# Experiments:
# LSD2 = target: T1, LSD2; assay: H3K4me2 peptide demethylation assay (MALDI-TOF); format: biochemical; conditions: shorter H3K4me2 peptide residues 1-15
# Protocol: FIGS. 12A-12F depict analysis of LSD2 demethylation activity and mutational analysis. […] Demethylation products were analyzed by MALDI-TOF mass spectrometry. 0.15 μM LSD2 can efficiently demethylate the longer H3K4me2 peptide (1-21), but has no detectable activity on the shorter histone peptide (1-15), demethylation of which requires high concentration (1.2 μM) of LSD2. […] It indicates the importance of histone residue 16-21 to LSD2 enzymatic activity and NPAC cofactor activity, supporting our model that NPAC assists enzyme-substrate interactions by creating a new binding site for H3 L20 in the LSD2-NPAC complex. FIG. 12C depicts LSD2 demethylation and NPAC cofactor activity on longer H3K4me2 peptide (1-44). 2 μg H3K4me2 peptide (1-44) were incubated with 0.8 μg GST-LSD2 (1-822) and 2 μg wild-type or F217A full-length GST-NPAC proteins in 100 μl demethylation buffer (50 mM Tris-HCl pH 8.1, 1 mM NAD^+, 0.1 Unit formaldehyde dehydrogenase) at 30° C. for 2 hours. LSD2 alone can efficiently demethylate di-methyl H3K4 of the long peptides, converting large majority of the substrate to H3K4me1. Wild-type NPAC protein can efficiently stimulate LSD2 demethylation, producing unmethylated H3K4. F217A mutation impairs NPAC cofactor activity as expected, showing little stimulatory effect if any. To compare demethylation efficiency, 1.2 μg bio-H3K4me2 peptide (H3 residue 1-21, equal molar ratio to 2 ug H3K4me2 1-44 peptide in above assays) was demethylated by LSD2 under identical conditions (bottom panel). […] The cofactor activity of wild-type NPAC was readily detected under the same conditions. […] Importantly, the demethylation of nucleosomal H3K4me2 was much more efficient in the presence of wild-type NPAC under same conditions (comparing lane 3 verse 4, and 8 verse 9). It is noted that no obvious cofactor effect of F217A peptide or linker regions was detected in nucleosome and peptide demethylation assays (FIG. 6E and data not shown). FIG. 12F depicts Coomassie staining of NPAC proteins used in histone demethylase assays. FIG. 12F discloses “His6” as SEQ ID NO: 75.
# Histone peptides are purchased from Millipore, or custom synthesized. The purity of all peptides are >95% as determined by HPLC and mass spectrometry. In vitro histone demethylase activity assays were performed as described (Shi et al., 2004). Briefly, purified LSD2 and NPAC derived peptides or proteins were incubated with 50 μM H3K4me2 peptides (residues 1-21) in 50 mM Tris-HCl, pH 8.5, 50 mM KCl, 5 mM MgCl2, 5% glycerol at 37° C. for 30 min. The products were desalted through a C18 Ziptip (Millipore) and analyzed on a MALDI-TOF micro MX mass spectrometer (ABI 4700, Applied Biosystems). The laser intensity was kept constant for all of the samples. All MS data were processed using Data Explorer 4.5 (Applied Biosystems). […]
# [1] = test system: CCND1 and CCNE1 expression; assay: CCND1 and CCNE1 expression in breast cancer cells; format: cell-based; conditions: stable MDA-MB-231 cell lines, shRNA-resistant cDNA
# From the text: We first established stable MDA-MB-231 cell lines that express similar levels of the mutant or the wild-type full-length NPAC from cDNAs introduced with silent mutations and resistant to NPAC shRNA (data not shown). […] Thus, mutation of the LSD2-interacting residues F218, L219 and L291 of NPAC can disrupt LSD2 and NPAC functions in vivo.
# We next examined if it is possible to use a small molecule to manipulate the interaction between NPAC and LSD2, thus affecting target gene expression. We have shown that a short mutant NPAC peptide (residues 214-225) can interact with LSD2 with high affinity, however, lost its cofactor activity. NPAC214-225.F217A is expected to be able to competitive inhibit the interaction between endogenous NPAC and LSD2, without stimulating LSD2 demethylase activity (FIG. 25A, right). […] Thus, unable to stimulate the histone demethylase activity of endogenous LSD2, this mutant peptide is a potent inhibitor of LSD2 function by competitively inhibiting LSD2 binding by endogenous NPAC.
molecule,measurement,setting,value
B1,Cofactor activity: stimulation of LSD2 demethylation of H3K4me2 peptide,LSD2,did not detect NPAC cofactor activity
same,Rescue of CCND1 and CCNE1 down regulation caused by NPAC shRNA,[1],prevents down regulation of CCND1 and CCNE1 by NPAC shRNA
